Reference: article PMC9129923

Biological target: microtubules grown from porcine brain tubulin (porcine) (UniProt P02550)
Assay: TIRF microscopy of fluorescent proteins on dynamic microtubules in vitro

augmin^CDK1/PLK1-GFP, Q96CS2-1;Q9NVX0-1;Q68CZ6-1;Q9H6D7-1;O94927-1;Q7Z4H7-1;Q99871-1;Q9BT25-1
fold intensity along MTs over NEDD1^CDK1/PLK1: 20 fold

γ-TuRC^ΔWD/StN/CDK1/PLK1-GFP (γ-TuRC purified by Strep-NEDD1 ΔWD, GCP3-GFP) (from UniProt P23258;Q9BSJ2-1;Q96CW5-1;Q9UGJ1-2;Q96RT8-1;Q96RT7-1;Q08AG7;Q6P582;Q6NZ67;Q9Y5B8-1) (complex)
MT binding at 10 nM, percent of γ-TuRC^StN/CDK1/PLK1: 21%
MT binding at 50 nM, percent of γ-TuRC^StN/CDK1/PLK1: 13%
